In patent publication US20220259593A1, “CONTROL OF MAMMALIAN GENE DOSAGE USING CRISPR” (The Regents of the University of California, priority 2019, published 2022) one finds Mean relative activity data, which are given here for 29 molecules.

The series concerns K562 CRISPRi cells. Description: Constant region variant library pooled growth screen, K562. It is filed as cell-based, human. The following applies: sgRNA constant region variants. The method, boiled down:
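K562 CRISPRi, duplicate transductions; puromycin 1 d 0.75 μg/mL then 1 d 0.85 μg/mL; >2000× coverage in spinner flasks; harvests at 4-8 d growth. Activity = phenotype ÷ phenotype with unmodified constant region.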

[1] abbreviates: activity relative to the unmodified constant region cr995.
Setting [2] is: activity relative to the original, un-modified constant region cr995.

B1: cr662 (nucleic acid)
guide: GTTTAAGAGCTAAGCTGGAAACAGCATAGCAAGTATAAATAAGGCTAGTCCGTTATCAACTTGAAAAAGTGGCACCGAGTCGGTGCT
modifications: listed as DNA, chemistry not fully specified
B1 showed a Mean relative activity under setting [1] of 0.2491.

B2: cr870 (nucleic acid)
guide: GTTTAAGAGCTAAGCTGGAAACAGCAAAGCAAGTTTAAATAAGGCTAGTCCGTTATCAACTTGAAAAAGTGGCACCGAGTCGGTGCT
modifications: listed as DNA, chemistry not fully specified
B2 registered a Mean relative activity under setting [2] of 1.04.

B3: cr262 (nucleic acid)
guide: GTTTAAGAGCTAAGCTGGAAACAGCATAGCAAGCTTAAATAAGGCTAGTCCGTTATCATCTTGAAAAAGAGGCACCGAGTCGGTGCT
modifications: listed as DNA, chemistry not fully specified
B3: the Mean relative activity under setting [1] is 0.2329.

B4: cr732 (nucleic acid)
guide: GTTTAAGAGCTAAGCTGGAAACAGCATAGCAAGTTTAAATAGGGCTAGTCCGGTATCAACTTGAAAAAGTCGCACCGAGTCGGTGCT
modifications: listed as DNA, chemistry not fully specified
Under setting [1], B4 had a Mean relative activity of 0.1926.

B5: cr011 (nucleic acid)
guide: GTTCAAGAGCTAAGCTGGAAACAGCATAGCAAGTTTAAATAAGGCTAGTCCGTTATCAACTTGAAAAAGTGGCACCGAGTCGGTGCT
modifications: listed as DNA, chemistry not fully specified
The molecule B5 displayed a Mean relative activity under setting [1] of 0.2088.

B6: cr218 (nucleic acid)
guide: GTTTAAGAGCTAAGCTGGAAACAGCATAGCAATTTTAAATAAGGCTAGTCCGTTATCAACTTAAACAAGTGGCACCGAGTCGGTGCT
modifications: listed as DNA, chemistry not fully specified
Under setting [1], B6 gave a Mean relative activity of 0.207.

B7: cr308 (nucleic acid)
guide: GTTTAAGAGCTAAGCTGGAAACAGCATAGCAAGTTTAAATAAAGCTAGTCTGTTATCATCTTGAAAAAGAGGCTCCGAGTCGGAGCT
modifications: listed as DNA, chemistry not fully specified
Under setting [1], B7 yielded a Mean relative activity of 0.2249.

B8: cr853 (nucleic acid)
guide: GTTTAAGAGCTAAGCTGGAAACAGCATAGCAATTTTAAATAAGGCGAGTCCGTTATCAACTTGAAAAAGTGGCACCGAGTCGGTGCT
modifications: listed as DNA, chemistry not fully specified
Under setting [1], B8 had a Mean relative activity of 0.2121.

B9: cr294 (nucleic acid)
guide: GTTTAAGAGCTAAGCTGGAAACAGCATAGCAAGTTTAAATAAGAATATTTCGTTATCAACTTGAAAAAGTGGCACCGAGTCGGTGCT
modifications: listed as DNA, chemistry not fully specified
For B9, under setting [1], the Mean relative activity is given as 0.1883.

B10: cr760 (nucleic acid)
guide: GTTTAAGAGCTAAGCTGGAAACAGCATAGCAGGTTTAAATCAGGCTAGTCCGTTATCAACTTGATAAAGTGGCACCGAGTCGGTGCT
modifications: listed as DNA, chemistry not fully specified
For the molecule B10, under setting [1], the Mean relative activity stood at 0.1909.

B11: cr158 (nucleic acid)
guide: GTTTAAGAGCTAAGCTGGAAACAGCATAGCAAGTTTAAATAAAGTTAATCTGTTATCAACTCGAAAGAGTGGCACCGAGTCGGTGCT
modifications: listed as DNA, chemistry not fully specified
Under setting [1], B11 yielded a Mean relative activity of 0.2403.

B12: cr276 (nucleic acid)
guide: GTTTAAGAGCTAAGCTGGAAACAGCATAGCAAGTTTAAATAAGGATATTCCGTTATCAGCTTGAAAAAGCGGCACCCAGTGGGTGCT
modifications: listed as DNA, chemistry not fully specified
As for B12, the Mean relative activity under setting [1] turned out to be 0.2143.

B13: cr720 (nucleic acid)
guide: GTTTAAGAGCTAAGCTGGAAACAGCATAGCAAGCTTAAATAAGGTTAATCCGTTATCAACTTGAAAAAGTGGCACCGAGTCGGTGCT
modifications: listed as DNA, chemistry not fully specified
As for B13, the Mean relative activity under setting [1] is reported as 0.2481.

B14: cr487 (nucleic acid)
guide: GTTTAAGAGCTAAGCTGGAAACAGCATAGCACGTTTAAATAAGGCTAGTCCGTTATCAACTTGAAAAAGTGGCACCGAGTCGGTGCT
modifications: listed as DNA, chemistry not fully specified
Regarding B14, the Mean relative activity under setting [2] was found to be 1.039.

B15: cr403 (nucleic acid)
guide: GTTTAAGAGCTAAGCTGGAAACAGCATAGCAAGCTTAAATAAGGCTAGTCCGTTATCAACTTGAAAAAGTGGCACAGAGTCTGTGCT
modifications: listed as DNA, chemistry not fully specified
Under setting [1], B15 registered a Mean relative activity of 0.2381.

B16: cr198 (nucleic acid)
guide: GTTTAAGAGCTAAGCTGGAAACAGCATAGCAATTTTAAATAAGGCTAGTCCGTTATCAACTTGAAAAAGTGGCACCGAATCGGTGCT
modifications: listed as DNA, chemistry not fully specified
B16 registered a Mean relative activity under setting [1] of 0.236.

B17: cr090 (nucleic acid)
guide: GTTTTATAGCTAAGCTGGAAACAGCATAGCAAGTTTAAATAAGGCTAGTCCGTTATCAACTTGAAAAAGTGGCACCGAGTCGGTGCT
modifications: listed as DNA, chemistry not fully specified
Molecule B17 returned a Mean relative activity under setting [1] of 0.1865.

B18: cr792 (nucleic acid)
guide: GTTTAAGAGCTAAGCTGGAAACAGCATAGCAAGCTTAAATAAGGCTAGTCCGTTATCAACTTGAAAAAGTGCCACCGAGTCGGTGGT
modifications: listed as DNA, chemistry not fully specified
The molecule B18 had a Mean relative activity under setting [1] of 0.242.

B19: cr347 (nucleic acid)
guide: GTTTAAGAGCTAAGCTGGAAACAGCATAGCAAGCTTAAATAAGCCTAGTGCGTTATCAACTTGAAAAAGTGGCACCGAGTCGGTGCT
modifications: listed as DNA, chemistry not fully specified
On to B19, for which the Mean relative activity under setting [1] is listed as 0.1915.

B20: cr194 (nucleic acid)
guide: GTTTAAGAGCTAAGCTGGAAACAGCATAGCAAGTTTAAATAAGGCTAGTACGTTATCAACTTGAAAAAGTGGCACCGAGTCGGTGCT
modifications: listed as DNA, chemistry not fully specified
For the molecule B20, the Mean relative activity under setting [1] is given as 0.2113.

B21: cr832 (nucleic acid)
guide: GTTTAAGAGCTAAGCTGGAAACAGCATAGCAAGTTTAAATAAGGCTAGTCCGTTATCAGCTTGAAAAAGCGGTGCCGAGTCGGCACT
modifications: listed as DNA, chemistry not fully specified
Molecule B21 displayed a Mean relative activity under setting [2] of 1.039.

B22: cr854 (nucleic acid)
guide: GTTTAAGAGCTAAGCTGGAAACAGCATAGCAAGTTTAAATAAGGCTAGTCCGTTATCAACTTGAAAAAGTGGCAGGGAGTCCCTGCT
modifications: listed as DNA, chemistry not fully specified
Under setting [1], B22 yielded a Mean relative activity of 0.2099.

B23: cr180 (nucleic acid)
guide: GTTTAAGAGCTAAGCTGGAAACAGCATAGCAAGTTTAAATCAGGCTAGTCCGTTATCAACTTGAAAAAGTGGCACCGAGCCGGTGCT
modifications: listed as DNA, chemistry not fully specified
In turn, B23 returned a Mean relative activity under setting [1] of 0.208.

B24: cr900 (nucleic acid)
guide: GTTTAAGAGCTAAGCTGGAAACAGCATAGCAAGTTGAAATAAGGCTAGTCCGTTATCAACTTGAAAAAGTGGCACCGAGTCGGTGCT
modifications: listed as DNA, chemistry not fully specified
For the molecule B24, the Mean relative activity under setting [1] was 0.1846.

B25: cr220 (nucleic acid)
guide: GTTTAAGAGCTAAGCTGGAAACAGCATAGCAAGTTTAAATCAGGCTAGTCCATAATCAACTTGAAAAAGTGGCACCGAGTCGGTGCT
modifications: listed as DNA, chemistry not fully specified
With B25, the Mean relative activity under setting [1] was found to be 0.2229.

B26: cr429 (nucleic acid)
guide: GTTTAAGAGCTAAGCTGGAAACAGCATAGCAAGTTTAAATAAGAATATTTCGTTATCAACTTGAAAAAGTGGCAACGAGTCGTTGCT
modifications: listed as DNA, chemistry not fully specified
The molecule B26 gave a Mean relative activity under setting [1] of 0.196.

B27: cr207 (nucleic acid)
guide: GTTTAAGAGCTAAGCTGGAAACAGCATAGCAAGTTTAAATAAGGCTAGTCCGTTATCAACTTGAAAAAGTGGCACCGAGTGGGTGCT
modifications: listed as DNA, chemistry not fully specified
Turning to B27, under setting [1], the Mean relative activity was 0.2154.

B28: cr025 (nucleic acid)
guide: CTTTAAAAGCTAAGCTGGAAACAGCATAGCAAGTTTAAATAAGGCTAGTCCGTTATCAACTTGAAAAAGTGGCACCGAGTCGGTGCT
modifications: listed as DNA, chemistry not fully specified
For the molecule B28, the Mean relative activity under setting [1] came out at 0.2396.

B29: cr373 (nucleic acid)
guide: GTTTAAGAGCTAAGCTGGAAACAGCATAGCAAGCTTAAATAAGGCTAGTCCGTTATCAACTTGAAAAAGTGGCAGCGAGTCGCTGCT
modifications: listed as DNA, chemistry not fully specified
For the molecule B29, the Mean relative activity under setting [1] is reported as 0.1993.
